Laboratory results: patent publication US20210244739A1

Target: human protein kinase R (PKR) (human) (UniProt P19525)
Experiment: cell-based or functional assay

UniProt P19525, sequence (P19525 2-551 limits assumed): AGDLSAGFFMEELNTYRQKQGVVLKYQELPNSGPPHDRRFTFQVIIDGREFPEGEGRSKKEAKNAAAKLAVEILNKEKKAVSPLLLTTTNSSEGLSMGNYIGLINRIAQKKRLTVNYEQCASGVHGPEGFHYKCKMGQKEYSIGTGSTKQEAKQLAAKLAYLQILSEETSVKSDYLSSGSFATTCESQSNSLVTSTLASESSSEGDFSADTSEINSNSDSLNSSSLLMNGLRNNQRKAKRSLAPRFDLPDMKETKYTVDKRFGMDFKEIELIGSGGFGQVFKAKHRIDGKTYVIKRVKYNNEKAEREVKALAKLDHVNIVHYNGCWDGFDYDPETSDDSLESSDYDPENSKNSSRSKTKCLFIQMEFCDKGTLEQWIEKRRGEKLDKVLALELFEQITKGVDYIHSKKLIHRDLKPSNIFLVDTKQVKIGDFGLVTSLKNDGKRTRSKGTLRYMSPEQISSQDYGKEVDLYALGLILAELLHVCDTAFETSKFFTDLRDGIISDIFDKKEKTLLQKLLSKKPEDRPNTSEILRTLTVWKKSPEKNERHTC

Yaba monkey tumor virus 012 (K3 ortholog)
virus titre increase between 5 hpi and 48 hpi in HeLa cells: > 10 fold
